T1: Glycoprotein VI extracellular domain (Gln21-Lys267) (Homo sapiens, UniProt Q9HCN6 SEQ:1-247)
T1 chain: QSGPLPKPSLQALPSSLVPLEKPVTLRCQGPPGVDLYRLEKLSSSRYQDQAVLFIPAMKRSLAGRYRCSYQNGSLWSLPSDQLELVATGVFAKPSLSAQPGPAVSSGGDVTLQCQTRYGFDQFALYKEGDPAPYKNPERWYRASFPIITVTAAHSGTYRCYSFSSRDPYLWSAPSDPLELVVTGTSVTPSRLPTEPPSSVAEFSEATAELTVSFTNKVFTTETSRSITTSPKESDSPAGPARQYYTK

T2: Glycoprotein VI extracellular domain (Gln21-Lys267) (Homo sapiens) (UniProt Q9HCN6)
T2 sequence: T1 chain

In one data set the target is T1, Glycoprotein VI extracellular domain …. Put plainly: competition; competition with radiolabeled parent. To be noted: tags: C-terminal His6; R&D Systems 3627-GP.
For the molecule GGAGGACGGCGCGCCUGGCAUAAGCCUCC (ssRNA, RB566 with 2'-OMe G1 and 5' hexylamino linker) [RB567], the Kd was under 10 nM. The same measure, in the same setting: under GGAGGACGGCGCGCCUGGCAUAAGCCUCC (ssRNA, RB549 with 2'-OMe G1 and 5' hexylamino linker) [RB560] stands under 10 nM.

As to GGAGGACGGCGCGCCUGGCAUAAGCCUCC (ssRNA, RB560 with 5' branched 40 kDa PEG) [RB569], the Kd is under 10 nM.

For GGAGGACGGCGCGCCUGGCAUAAGCCUCC (ssRNA, RB540 with 2'-OMe G1 and 5' hexylamino linker) [RB542], the Kd turned out to be 15.5 nM.

The next data set shares this target. Put plainly: filter. To be noted: tags: C-terminal His6; R&D Systems 3627-GP; label: 5'-32P. The procedure: Enrichment of the ligand libraries for GPVI was monitored in direct binding studies utilizing radiolabeled ligand RNA from respective rounds of SELEX and soluble GPVI. Binding studies were performed with trace P³² end-labeled RNA added to serial dilutions of GPVI in Binding Buffer F. To prepare radiolabeled RNAs for binding studies, one hundred picomoles of RNA was dephosphorylated with Bacterial Alkaline Phopshatase at 50° C. for 1 hour. The reaction was phenol:chloroform:isoamyl alcohol (25:24:1) extracted, chloroform: isoamyl:alcohol (24:1) extracted, and ethanol precipitated. Three pmoles of dephosphorylated RNA was end labeled with T4 Poylnucleotide Kinase with supplied buffer, and 20 μCi of γ-P³²-ATP and subsequently cleaned with a Biorad MicroBio Spin P-30 spin column. End-labeled RNA was diluted to a final concentration of 2000 cpm/μL and heat denatured at 65° C. for 5 minutes. RNA and GPVI dilutions were equilibrated at 37° C. prior to use. RNA (5 μL) was added to varying concentrations of GPVI (15 μL) at 37° C. and incubated together for 5 to 15 minutes. The complexed RNA/GPVI protein mixture was then loaded over a Protean BA85 nitrocellulose membrane, overlayed on a Genescreen Plus Nylon membrane, in a 96 well vacuum manifold system with washing. The membranes were exposed to a phosphorimager screen, scanned, and quantitated with a Molecular Dynamics Storm 840 Phosphorimager. The fraction bound was calculated by dividing the counts on the nitrocellulose by the total counts and adjusting for the background. Results for binding of enriched ligand libraries from round 10 E2 and round 10 EF of the SELEX as compared to the GPVI-naïve starting ligand library are shown in FIG. 3.
The molecule GGAGGACGGCGCGCCUGGCAUAAGCCUCC (ssRNA, RB540 with PS C7-G8) [RB548] returned a dissociation constant (Kd) of 15.5 nM. Still for that read-out and setting: the value for GGAGGACGGCGCGCCUGGCAUAAGCCUCC (ssRNA, RB537 with 2'-OMe G17) [RB538] was 15.5 nM; that for GGAGGACGGCGCGCCUGGCAUAAGCCUCC (ssRNA, RB540 with PS A6-C7) [RB547] was 15.5 nM. Same read-out and setting: under GGGAGGACGGCCUAAGCCUGGCAUAAGCCUCCC (ssRNA, 2'-F C and U; 2'-OH A and G) [EF-31 T8] stands over 40 nM; under GGGAGGACGACGCGUCUGGCAUAAGCCUCCC (ssRNA, RB526 pattern with 2'-OH A10 and 2'-F U15) [RB535], 15.5 nM; under GGGAGGACGGCGCGCCUGGCAUAAGCCUCCC (ssRNA, RB490 with 2'-OMe G6,A7,C8) [RB517], over 40 nM. GGGAGGACGGCGCGCCUGGCAUAAGCCUCCC (ssRNA, RB520 with 2'-OMe A7,G9) [RB523]: the Kd is over 40 nM. Same read-out and setting: under GGGAGGACGGCGCGCCUGGCAUAAGCCUCCC (ssRNA, RB524 with 2'-OMe A7, 2'-deoxy G9) [RB528] stands over 40 nM; under GGGAGGACGGCGCGCCUGGCAUAAGCCUCCC (ssRNA, RB524 with 2'-OMe A7,G9) [RB527], over 40 nM. On the same count and under the same terms, under GGGAGGACGUGCGGAUCACACCGCGCUUGCGUAAGCCUCCC (ssRNA, 2'-F C and U; 2'-OH A and G) [EF-3 T3 (RB445)] stands over 40 nM; under GGAGGACGGCGCGCCUGGCAUAAGCCUCC (ssRNA, RB551 with PS A6-C7) [RB553], 15.5 nM; under GGGAGGACGUGCGGUCUAAGCUGCGCUGGCAUAAGCCUCCC (ssRNA, 2'-F C and U; 2'-OH A and G) [EF-31 T4 (RB441)], over 40 nM. On the same count and under the same terms, under GGGAGGACGGCGCUAACGCCUGGCAUAAGCCUCCC (ssRNA, RB448 with 2'-OMe throughout Stem 1) [RB453] stands under 10 nM. In turn, GGGAGGACGGCGCUAACGCCUGGCAUAAGCCUCCC (ssRNA, RB448 with 2'-OMe G23,C30) [RB462] came in with a Kd of under 10 nM. GGAGGACGGCGCGCCUGGCAUAAGCCUCC (ssRNA, RB540 with PS G5-A6) [RB546] gave a Kd of 15.5 nM. On to GGAGGACGGCGCGCCUGGCAUAAGCCUCC (ssRNA, RB551 with PS G5-A6) [RB552], for which the Kd was 15.5 nM. GGAGGACGGCGCGCCUGGCAUAAGCCUCC (ssRNA, RB540 with 2'-OH G8) [RB551] gave a Kd of 15.5 nM.

Another data set deals with T2, Glycoprotein VI extracellular domain (Gln21-Lys267) (Homo sapiens). Put plainly: filter. To be noted: 2'-OH G1; 2'-deoxy A6,G8,G9; 2'-F C7,C14,C15,U16,C19,U21; all others 2'-OMe; hexaethylene glycol spacer between G11 and C12; 3' idT; buffer F, 37 C.
GGAGGACGGCGCGCCUGGCAUAAGCCUCC [RB540] gave a Kd of 15 nM.

Still in this data set, the particulars now being: RB490 pattern; hexaethylene glycol spacer between G11 and C12; 3' idT.
In turn, GGAGGACGGCGCGCCUGGCAUAAGCCUCC [RB507] showed a Kd of under 10 nM.

Staying with this data set, now noted: RB520 pattern; hexaethylene glycol spacer between G11 and C12; 3' idT; buffer F, 37 C.
Take GGAGGACGGCGCGCCUGGCAUAAGCCUCC [RB521]: the Kd was determined as 6 nM.

Staying with this data set, now noted: RB526 pattern; hexaethylene glycol spacer between G11 and C12; 3' idT.
In turn, GGAGGACGGCGCGCCUGGCAUAAGCCUCC [RB537] came in with a dissociation constant (Kd) of under 10 nM.

Staying with this data set, now noted: RB535 with 2'-OMe G9.
As to GGGAGGACGACGCGUCUGGCAUAAGCCUCCC [RB536], the Kd was over 40 nM.

The values above are taken from patent US20100311820, “NUCLEIC ACID MODULATORS OF GLYCOPROTEIN VI” (Regado Biosciences, Inc, published 2010).
